T1: thermolysin-cleaved EBOV GP on Jurkat-GP cells (cleaved GP) (Zaire ebolavirus, Makona (GP1 core …, strain))
T1 chain 1: not shown
T1 chain 2: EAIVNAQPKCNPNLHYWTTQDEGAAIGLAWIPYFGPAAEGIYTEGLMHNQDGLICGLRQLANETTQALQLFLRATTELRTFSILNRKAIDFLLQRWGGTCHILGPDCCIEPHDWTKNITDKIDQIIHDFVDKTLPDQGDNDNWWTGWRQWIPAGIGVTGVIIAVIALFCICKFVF

B1: 5.6.c3057 (antibody, V domains shown)
VH: QVQLVESGGGVVQSGRSLRLSCAASGFTLSSYGMHWVRQAPGKGLEWVATVSFDGNNEYYADSVKGRFTISRDKSKNTLYLQMNSLRPEDTAMYYCAKEPLPARGDFWSGHYSPPSYYYYGMDVWGQGTTVTVSS
VL: QTVVTQEPSFSVSPGGTVTLTCGLRSGSVSTNYYPSWYQQTPGQPPRTLIYNTNTRSFGVPDRFSGSILGNRAALTITGAQADDESDYYCLLYMDSGIWVFGGGTKLTVL
B2: 5.6.c3113 (antibody, V domains shown)
VH: EVQMVESGGGLAQPGGSLRLSCAASGFTFSSYEMSWVRQAPGKGLEWVSYISTSGNTIYYADSVKGRFTISRDNAKNSLYLQMNNLRAEDTAFYYCAANHGDNLFWYFDLWGRGTLVTVSS
VL: DIQLIQSPSFLSASVGDRVTITCRASQGISSYLAWYQQKLGKAPKLLMYAASTLQSGVPSRFSGSGSGTEFTLTISSLQPEDFATYYCQQLNGYPPTFGQGTKLEIK
B3: 5.6.c3133 (antibody, V domains shown)
VH: QVQLVQSGAEVKKPGSSVKVSCKTSGGTLSTYPFSWVRQAPGQGLEWMGGIIPFFGTTNYAQKFQGRLTMTADKSTNTVYMELGSLRSEDTAVYYCAREHGDDIYYYFAMDVWGQGTTVTVSS
VL: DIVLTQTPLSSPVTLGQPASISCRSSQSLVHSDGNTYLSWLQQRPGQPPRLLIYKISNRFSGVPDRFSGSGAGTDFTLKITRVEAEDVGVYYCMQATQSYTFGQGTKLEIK
B4: 5.6.c3083 (antibody, V domains shown)
VH: QVQLVQSGVEVKKPGASVKLSCKASGYTFTTYGISWVRQAPGQGLEWMGWISAYDDNANYGQQFQGRVTMTTDTSTSTAYMELRSLRSDDTAVYFCARCGGEFIWGWLDPWGQGTLVTVSS
VL: QSALTQPASVSGSPGQSITISCTGTSSDIGGYNYVSWYQQHPGLAPKLMIYDVSYRPSGVSNRFSGSKSGNTASLTISGLQAEDEADYYCSSYTSSGTLVFGGGTKLTVL
B5: 5.6.c3236 (antibody, V domains shown)
VH: QVQLLESGPGLVKPSETLSLTCAVSGGSVSSNTHFWSWIRQPPGKGLEWIGYTLSSGSTAYNPSLKSRVSLSVDTSKNHFSLKLTSVTAADTAVYYCAGTVIQGVVSFDWFDPWGQGTLVTVSS
VL: DIQMTQSPSSLSASVGDRVTITCRASQSINSYLNWYQQRPGKAPKLLIYTTSNLQSGVPSRFSGSGSGTDFTLTISSLQPEDFATYYCQQSYSTPLTFGGGTKVEIK
B6: 5.6.c3108 (antibody, V domains shown)
VH: QVQLVESGGGVVQPGRSLRLSCAASGFTFSNSDMHWVRQAPGKGLEWVALIYFDGSSQYYVDSVKGRFTISRDNSKNTLYLQMNSLRVEDTAVYYCAREAAIVGAIFYDGMDVWGQGTTVTVSS
VL: EIVMTQSPATLSVSPGEGATLSCRASQNVGFNVAWYQQRPGQAPRLLIYGASTRATGVPARFSGSGSGTEFTLTISSLQSEDFAVYYCQQCNNWPPLTFGGGTKVEIK
B7: 5.6.c3168 (antibody, V domains shown)
VH: EVQLVESGGGLVQPGGSLRLSCAASGFTLSNYDMNWVRQAPGKRLEWVSYISSSGSTTYYVDSVKGRFTISRDNAKNSLYLQMNSLRAEDTAVYYCARGHNNWFLYFDSWGQGTLVTVSS
VL: EILMTQSPATLSVSPGERATLSCRASQSVSSNLAWYQQVPGQAPRLLISDASTRATGIPARFSGSGSGTEFTLTINSLQSEDFAVYYCQQYNDWPGTFGQGTKLEIK
B8: 5.6.c3206 (antibody, V domains shown)
VH: QVQLKESGPGLVKPSQTLSLTCSVSGGAISNGGYCYTWIRQRPGKGLESIGYMHYSGSPYYNPSLKSRVTIYVDTSKNQFSLKLSSVTAADTAVYYCARGLLWFGESPFYYFDYWGQGTLVTVSS
VL: QSVLTQPPSVSGAPGQRVTISCTGSSSNIGAGYDVHWYQQLPGTAPKLLIYGNSNRPSGVPDRFSGSKSGTSASLAITGLQAEDEADYYCQSCDSSLSVVFGGGTKLTVL
B9: 5.6.c3067 (antibody, V domains shown)
VH: EVQLVESGGGLVQPGGSLRLSCAASGFTFSNYWMTWVRQAPGKGLEWVGNIKEDGSEKYYVDSVKGRFTISRDNAKNSLYLQLNNLRAEDTAVYYCAREPAGFVFEGGFDYWGQGTLVTVSS
VL: DIQMTQSPSSVSASVGDRVTILCRASQYITTWLAWYQQKPGRAPKLLISAASTLQSGVPSRFSGSGSGTDFTLTISSLQPEDFATYYCQQAHSLPWTFGQGTKVEIK
B10: 5.6.c3197 (antibody, V domains shown)
VH: QVQVVESGGGVVQPGKSLRLSCAASGFTFSSYGMHWVRQAPGKGLEWVAFIAYDGSNEYYADSVKGRFTISRDNSKITLYLQMNSLRAEDTAMYYCAKEGAGHDALYYYGMDVWGQGTTVTVSS
VL: DIQMTQSPSSVSASVGDRVTITCRASQGISFWLAWYQQKPGKAPELLISAASSLQSGVPSRFSGSGSGTDFTLTISSLQPEDFATYYCLQAHSFPYTFGQGTKLEIK
B11: 5.6.c3166 (antibody, V domains shown)
VH: EVHLVESGGGLVQPGGSLRLSCAASGFSFNTHWMNWVRQAPGKGLEWVANIKQNGGEKYYVDSVKGRFTISRDNAKNTLFLQMNSLRGDDTAVYYCARGPPPAAPEDLFYNYTMDVWGQGTTVTVSS
VL: EIVMTQSPATLSVSPGERATLSCRASQSVINHLAWYQQKPGQTPRLLIYGASTRATGIPARFSGSGSGTEFTLTISSLQSEDFAVYFCQQYNTWPPFTFGGGTKVEIK
B12: 5.6.c3151 (antibody, V domains shown)
VH: EVQLVESGGGVVQPGGSLRLSCAASGFDFDDYPMNWVRQAPGKGLELVFLISGDGGSTYSADSVKGRFTISRDNSKNSLYLQMNSLRTEDTALYYCAKDAVDNSGLYYYGMDVWGQGTTVIVSS
VL: DIQMTQSPSSVSASVGDRVTINCRASQGISGWLAWYQQKPGKAPKLLIYAASSLQSGVPSRFSGSGSGTDFTLAISSLQPEDLATYYCQQTHSFPFTFGPGTKVGIK
B13: 5.6.c3027 (antibody, V domains shown)
VH: QVQLVESGGGVVQPGRSLRLSCAASGFSFNNYGMHWVRQAPGKGLEWVAHIYFDGNYKFYIDSVKGRFTISRDNAKYTLYLQMNSLRVEDTAVYYCARDVRDGDDIFSGYHYGMDVWGQGTTVTVSS
VL: DIQMTQSPSSVSASVGDRVSITCRASQGFTNWLAWYQQKPGKAPKLVIYAASSLQSGVPSRFSGSGSGTNFTLTISSLQPEDFATYYCQQANSFPLTFGGGTKVDVK
B14: 5.6.c3221 (antibody, V domains shown)
VH: QEELVESGGGVVQPGRSLRLSCAASTFTFSIYAMHWVRQAPGKGLEWVAVISYDGSNRYYADSVKGRFTISRDNSKNTVYLQMNSLRAEDTAVYFCAKDLGSNGWYYFDSWGQGTLVTVSS
VL: EIVLTQSPGTLSLSPGERATLSCRASQSVSSRYLAWYQQKPGQAPRLLIYGVSSRATGVPDRFSGSGSGTDFTLTISRLEPEDFAVYYCQHYGSSPWRPFGQGTKLEIK
B15: 5.6.c3023 (antibody, V domains shown)
VH: QVQLVESGGGVVQPGRSLRLSCAASGFTFRTYGLHWVRQAPGKGLEWVAFISNDGSSKYNVDSVKGRFTISRDNPKNTLYLQMNSLRTEDTAVYYCAKDTISVAIYGHFDTWGQGTLVTVSS
VL: DVVMTQSPLSLPVTLGQPASISCRSSQSLVKSDGNTYLNWFQQRPGQSPRRLIYKVSTRDTGVPDRFSGSGSGTDFTLKISRVEAEDVAVYYCMQATHWPITFGGGTTVEIK
B16: 5.6.c3191 (antibody, V domains shown)
VH: QVQLAQSGAEVKKPGASVKVSCKSSGYNFTTHGFNWVRQVPGQGLEWMGWISAYNADTNYAQKFQGRLTLTTETSSNTAYMELRSLTSDDTAVYYCARGEEYSTLYFYGMDVWGQGTTVTVSS
VL: DIQMTQSPSSVSASVGDRVTITCRASQGISIWLAWYQQKPGKAPKLLIYGASTLQSGVPSRFSGSGSGADYTLTINSLQPEDFATYFCQQAHSFPYTFGQGTKLEIR
B17: 5.6.c3225 (antibody, V domains shown)
VH: EVQLVESGGGLVKPGGSLRLSCAASGFTFSSYTMNWVRQAPGKGLEWVSFISSTSRYIHYADSVKGRFTISRDNAKNSLFLQINSLRDEDTAVYFCARESVDDTSMLYYGLDVWGQGTTVTVSS
VL: DIQMTQSPSSLSASVGGRVTITCRASQSISSSLSWYQQKPGKAPKFLIYGASTLESGVPSRFSGSGSGTDFTLTISSLQPEDFATYFCQQSHSLPWTFGQGTKVEIK
B18: 5.6.c3054 (antibody, V domains shown)
VH: QVTLRESGPALVKPTQTLTLTCTFSGFSLSTSGMCVSWIRQPPGKALEWLALIDWNDGKYYTTSLKTRLTISKDTSKNQVVLTMTNMDPVDTATYYCARIFTSSDWFYDAFDLWGQGAMVTVSS
VL: QIVMTQSPATLSVSPGERATLSCRASQSVNNNLAWYQQKPGQAPRLLISGASTRATGIPARFSGSGFGTEFTLTISSLQSEDFAVYYCQQYNTWPPLTFGPGTRVDIK
B19: 5.6.c3053 (antibody, V domains shown)
VH: QVQLVESGGGLVQPGRSLRLSCAASGFTFTNYGMQWVRQGPGKGLEWVALIWYDGYSKYYVDSVKGRFTISRDNSKNTLYLEMNSLRAEDTAVYYCARGNGYSSGWLDNWGQGTLVTVSS
VL: DIQMTQSPSTLSASVGDRVTITCRASQSIDNWLAWYQQKPGKAPKVLIYKASSLESGVPSRFSGSASGTEFTLTISSLQPDDFATYYCQHYNSYSGTFGQGTKVEIK

One test concerns the target T1, thermolysin-cleaved EBOV GP on ….
For B1, the binding result is recorded as “binds”.
On the same count and under the same terms, as for B2, the entry is “binds”.
For the molecule B3, the binding result is “binds”.
On the same count and under the same terms, in the case of B4 it was “binds”; in that of B5, “binds”.
Take B6: the binding result is recorded as “binds”.
Take B7: the binding result was “binds”.
For B8, the binding result is “binds”.
Still for that read-out and setting: in the case of B9 it was “binds”; in that of B10, “binds”; in that of B11, “binds”.
Consider B12, for which the binding result was “binds”.
As to B13, the binding result is “binds”.
Same read-out and setting: in the case of B14 it was “binds”.
On to B15, for which the binding result is listed as “binds”.
Regarding B16, the binding result was “binds”.
On to B17, for which the binding result is on record as “binds”.
Still for that read-out and setting: in the case of B18 it was “binds”; in that of B19, “binds”.

The target in a further test is EBOV GP ectodomain residues 1-636 (GPec) (Zaire ebolavirus, strain  …, UniProt Q05320).
In the case of B1, the binding result is given as “binds”.
As for B2, the binding result is listed as “binds”.
On to B3, for which the binding result is on record as “binds”.
Consider B4, for which the binding result is given as “binds”.
Regarding B5, the binding result was “binds”.
Take B6: the binding result is given as “binds”.
For B7, the binding result is reported as “binds”.
In the case of B8, the binding result was “binds”.
For B9, the binding result is reported as “binds”.
With B10, the binding result is on record as “binds”.
B11: the binding result is listed as “binds”.
With B12, the binding result is reported as “binds”.
B13: the binding result is listed as “binds”.
With B14, the binding result is reported as “binds”.
For the molecule B15, the binding result is on record as “binds”.
Consider B16, for which the binding result is “binds”.
For the molecule B17, the binding result is “binds”.
Consider B18, for which the binding result is recorded as “binds”.
On to B19, for which the binding result is reported as “binds”.

Values taken from PMC6908968 (Cell, 2019).
